According to patent US20140242093A1, “METHODS AND COMPOSITIONS FOR MODULATING THE INNATE IMMUNE RESPONSE AND/OR MYOGENESIS IN A MAMMALIAN SUBJECT” (FRED HUTCHINSON CANCER RESEARCH CENTER, priority 2011, published 2014):

Test system: control human primary myoblasts
Test: Expression microarray of primary myoblasts transduced with lentivirus carrying DUX4-fl, DUX4-s or GFP
Procedure: Primary human myoblasts were collected and cultured as previously described (Snider et al., 2010). Primary myoblasts were maintained at or below 70% confluency for proliferation. For differentiation, cells were allowed to reach 95-100% confluency in growth medium. Once confluency was reached, the cells were changed to differentiation medium (F10 media supplemented with 1% horse serum, 10 μg/mL insulin, and 10 μg/mL transferrin, penicillin/streptomycin) and maintained for 4 days. Human RD cells were grown in DMEM in 10% bovine calf serum (Hyclone) and penicillin/streptomycin. The primary myoblasts were transduced with lentivirus carrying DUX-fl, DUX4- or GFP (MOI=15).
Expression microarrays were performed on the transduced cells at 24 hours after transduction as follows. […] Samples were analyzed by Illumina Human Whole Genome microarrays. Probe intensities were corrected, normalized, and summarized by the Lumi package of Bioconductor (Du et al., 2008). Differentially expressed genes were identified by the LIMMA package of Bioconductor (Wettenhall and Smyth, 2004). Gene set enrichment analysis (GSEA) was performed using the Bioconductor GOstats package (Falcon and Gentleman, 2007).

B1: DUX4-s: short splice form of DUX4 (SEQ ID NO:112), keeps the double-homeobox domains, lacks the C-terminal activation domain (protein, listed as Homo sapiens)
chain: MALPTPSDSTLPAEARGRGRRRRLVWTPSQSEALRACFERNPYPGIATRERLAQAIGIPEPRVQIWFQNERSRQLRQHRRESRPWPGRRGPPEGRRKRTAVTGSQTALLLRAFEKDRFPGIAAREELARETGLPESRIQIWFQNRRARHPGQGGRAPAQV
Refseq NM_001099790.1
  PRAMEF19 expression fc: −0.03732
Refseq NM_001099852.1
  PRAMEF20 expression fc: −0.003632
Refseq NM_001099854.1
  PRAMEF14 expression fc: −0.1694
Refseq NM_001100114.1
  PRAMEF21 expression fc: −0.06827
Refseq NM_001105522.1
  LOC729384 expression fc: −0.07068
Refseq NM_001126063.2
  KHDC1L expression fc: −0.07068
Refseq NM_001129826.1
  CSAG3 expression fc: 0.09074
Refseq NM_001136118.1
  LOC399940 expression fc: −0.03724
Refseq NM_001136561.1
  LOC440563 expression fc: 0.07051
Refseq NM_001136572.1
  FAM90A7 expression fc: −0.2137
Refseq NR_001561.1
  CYCSL1 expression fc: 0.3733
Refseq NR_001565.1
  MGC10997 expression fc: −0.2936
Refseq NR_002201.1, cultured human skeletal muscle
  FTHL3 expression fc: 0.4498
Refseq NR_002204.1, cultured human skeletal muscle
  FTHL11 expression fc: 0.6004
Refseq NR_002205.1, cultured human skeletal muscle
  FTHL12 expression fc: 0.3871
Refseq NR_002312.1
  RPPH1 expression fc: 0.2269
Refseq NR_002727.1
  RFPL1S expression fc: 0.1147
Refseq NR_002739.1
  SNORD56 expression fc: −0.1657
Refseq NR_002777.2
  fc of TRIM78P (expression array): 1.698
Refseq NR_002944.2
  HNRPA1L-2 expression fc: −0.898
Refseq NR_003051.2
  RMRP expression fc: 0.07334
Refseq NR_003133.1
  fc of LOC400759 (expression array): 1.032
Refseq NR_003249.1
  HNRPDL expression fc: 0.01689
Refseq NR_003264.1
  SDHALP1 expression fc: 0.1225
Refseq NR_023371.1
  RN5S9 expression fc: 0.7616
Refseq NR_024031.1
  KIAA0114 expression fc: −0.316
Refseq NR_024129.1
  NCRNA00092 expression fc: −0.1123
Refseq NR_030228.1
  MIR503 expression fc: −0.1361
Refseq NR_031755.1
  MIR2278 expression fc: 0.09768
Refseq XM_036729.5
  USP41 fc: 0.5246
Refseq XM_061890.11
  TRIM64 expression fc: −0.174
Refseq XM_069743.3
  LOC136157 expression fc: 0.05271
Refseq XM_114987.3
  LOC196120 expression fc: 0.05191
Refseq XM_116384.2
  LOC646066 expression fc: −0.02686
Refseq XM_208203.5
  LOC284428 expression fc: −0.09941
Refseq XM_210642.1
  LOC285697 expression fc: −0.06561
Refseq XM_292724.5
  LOC342934 expression fc: −0.06005
Refseq XM_293943.2
  LOC340096 expression fc: −0.07893
Refseq XM_372030.4
  LOC389633 expression fc: −0.0852
Refseq XM_372343.1
  LOC390031 expression fc: −0.1097
Refseq XM_372543.2
  LOC390530 fc: 0.1083
Refseq XM_372780.3
  LOC391045 expression fc: 0.3531
Refseq XM_372792.2
  LOC391092 expression fc: 0.1107
Refseq XM_373056.1
  LOC391742 expression fc: 0.1596
Refseq XM_373059.2
  LOC391747 expression fc: −0.1049
Refseq XM_373073.2
  LOC391761 expression fc: −0.05894
Refseq XM_373076.3
  LOC391764 expression fc: 0.1211
Refseq XM_373077.2
  LOC391766 expression fc: −0.05537
Refseq XM_373078.1
  LOC391767 expression fc: 0.05542
Refseq XM_374917.3
  LOC399937 expression fc: 0.0007914
Refseq XM_374919.3
  LOC399939 expression fc: −0.06731
Refseq XM_377445.3
  LOC401860 expression fc: −0.1342
Refseq XM_377875.2
  LOC402199 expression fc: 0.0817
Refseq XM_377879.3
  LOC646103 expression fc: −0.1387
Refseq XM_377884.2
  LOC402207 expression fc: −0.01834
Refseq XM_495873.4
  LOC440040 expression fc: 0.08128
Refseq XM_496956.4
  FAM90A9 expression fc: 0.01693
Refseq XM_496961.3
  FAM90A12 expression fc: 0.04824
Refseq XM_497258.1
  LOC441584 expression fc: −0.1442
Refseq XM_498969.2, cultured human skeletal muscle
  LOC441019 expression fc: 0.2625
Refseq XM_499343.2
  PEG10 expression fc: −0.09718
Refseq XM_925891.1
  LOC642362 expression fc: −0.0147
Refseq XM_926027.2
  LOC642538 expression fc: 0.1258
Refseq XM_926073.2
  LOC653111 expression fc: −0.09966
Refseq XM_926241.2
  LOC642843 expression fc: −0.05848
Refseq XM_926437.2
  LOC653192 expression fc: −0.03932
Refseq XM_926449.1
  LOC653194 expression fc: −0.01762
Refseq XM_927019.1
  LOC643731 expression fc: −0.0009314
Refseq XM_927769.1
  LOC653506 fc: 0.01748
Refseq XM_928167.2
  LOC645137 expression fc: −0.1524
Refseq XM_928224.2
  fc of LOC653583 (expression array): 0.1005
Refseq XM_928412.1
  LOC645373 expression fc: −0.06602
Refseq XM_928577.2
  LOC645558 expression fc: −0.04868
Refseq XM_928680.1
  LOC645669 expression fc: 0.08754
Refseq XM_928688.3
  LOC653656 expression fc: −0.1419
Refseq XM_928697.2
  LOC653657 expression fc: 0.186
Refseq XM_929644.2
  LOC646698 expression fc: 0.1105
Refseq XM_929704.2
  LOC646754 expression fc: −0.1486
Refseq XM_929877.1
  LOC646914 expression fc: −0.02473
Refseq XM_931359.2
  fc of LOC338758 (expression array): −0.07166
Refseq XM_933679.1
  LOC644739 fc: −0.07399
Refseq XM_936272.2
  LOC642127 expression fc: 0.04199
Refseq XM_936370.2
  LOC642219 expression fc: 4.39E−05
Refseq XM_936463.2
  LOC285299 expression fc: −0.03458
Refseq XM_936467.2
  fc of BEXL1 (expression array): −0.1528
Refseq XM_937424.1
  LOC653978 expression fc: 0.1928
Refseq XM_937570.1
  LOC646508 expression fc: −0.04201
Refseq XM_937587.1
  LOC648533 expression fc: 0.03736
Refseq XM_938208.2
  LOC342933 expression fc: −0.1021
Refseq XM_938420.2
  PRAMEF17 expression fc: 0.1008
Refseq XM_938508.1
  fc of LOC649425 (expression array): 2.539
Refseq XM_938635.2
  LOC649563 expression fc: −0.06114
Refseq XM_939249.1
  LOC650167 expression fc: 0.04811
Refseq XM_939354.1
  LOC654101 expression fc: 0.09479
Refseq XM_939432.1
  MGC61598 expression fc: 0.09581
Refseq XM_940443.1
  LOC651308 expression fc: 0.03906
Refseq XM_940903.2
  ZC3H5 fc: 0.09652
Refseq XM_941060.1
  LOC651816 expression fc: −0.5388
Refseq XM_941404.1
  LOC652080 expression fc: 0.1734
Refseq XM_941777.1
  LOC652349 expression fc: 0.01696
Refseq XM_941875.1
  LOC652433 expression fc: −0.03197
Refseq XM_942401.1
  LOC651390 expression fc: −0.07746
Refseq XM_001126140.1
  LOC727846 expression fc: 0.003662
Refseq XM_001126471.1
  LOC730278 fc: 0.1899
Refseq XM_001127571.1, cultured human skeletal muscle
  PARP10 expression fc: 0.5424
Refseq XM_001128017.1
  fc of LOC730996 (expression array): 1.049
Refseq XM_001129035.1
  LOC342900 expression fc: 0.1315
Refseq XM_001130065.2
  LOC729368 expression fc: −0.06002
Refseq XM_001130308.2
  LOC729458 expression fc: 0.008126
Refseq XM_001131061.1
  LOC729694 expression fc: −0.1655
Refseq XM_001131072.1
  LOC729698 expression fc: −0.06572
Refseq XM_001131081.1
  LOC729700 expression fc: −0.184
Refseq XM_001131091.1
  LOC729706 expression fc: −0.01626
Refseq XM_001131132.1
  LOC729724 expression fc: 0.1112
Refseq XM_001131140.1
  LOC729731 expression fc: 0.09881
Refseq XM_001131473.2
  LOC728450 expression fc: 0.1347
Refseq XM_001132711.1
  RFNG fc: −0.2183
Refseq XM_001133386.1
  LOC732416 expression fc: 0.05578
Refseq XM_001134346.1
  THOC4 expression fc: −0.1896
Refseq XM_001713659.1
  PRAMEF15 expression fc: −0.05867
Refseq XM_001713681.1
  LOC100131392 expression fc: −0.007104
Refseq XM_001713808.1
  LOC100132564 expression fc: 0.401
Refseq XM_001713901.1
  LOC391769 expression fc: 0.152
Refseq XM_001713933.1
  PRAMEF13 expression fc: 0.1179
Refseq XM_001714028.1
  PRAMEF11 expression fc: 0.1217
Refseq XM_001714301.1
  fc of LOC285296 (expression array): 0.8246
Refseq XM_001714755.1
  LOC100133588 expression fc: 0.03978
Refseq XM_001714786.1
  CTGLF7 expression fc: −0.2949
Refseq XM_001714940.1
  LOC100129630 expression fc: −0.1038
Refseq XM_001715080.1
  LOC391763 expression fc: 0.09287
Refseq XM_001717781.1
  LOC642446 expression fc: 0.1879
Refseq XM_001717965.1
  LOC100133446 expression fc: 0.1161
Refseq XM_001718314.1
  LOC100129165 fc: 0.2245
Refseq XM_001718563.1
  LOC643336 expression fc: 1.023
Refseq XM_001718702.1
  LOC100129053 expression fc: 0.09951
Refseq XM_001719052.1
  LOC100130652 expression fc: 0.105
Refseq XM_001719234.1
  RFPL4A expression fc: −0.09032
Refseq XM_001719546.1
  LOC728809 fc: 0.02213
Refseq XM_001719549.1
  LOC100134199 expression fc: 0.03252
